Biological target: HA-PTH1R_(mTurquoise/mCitrine) (human) (UniProt Q03431)
Chain of UniProt Q03431 (Q03431 27-593): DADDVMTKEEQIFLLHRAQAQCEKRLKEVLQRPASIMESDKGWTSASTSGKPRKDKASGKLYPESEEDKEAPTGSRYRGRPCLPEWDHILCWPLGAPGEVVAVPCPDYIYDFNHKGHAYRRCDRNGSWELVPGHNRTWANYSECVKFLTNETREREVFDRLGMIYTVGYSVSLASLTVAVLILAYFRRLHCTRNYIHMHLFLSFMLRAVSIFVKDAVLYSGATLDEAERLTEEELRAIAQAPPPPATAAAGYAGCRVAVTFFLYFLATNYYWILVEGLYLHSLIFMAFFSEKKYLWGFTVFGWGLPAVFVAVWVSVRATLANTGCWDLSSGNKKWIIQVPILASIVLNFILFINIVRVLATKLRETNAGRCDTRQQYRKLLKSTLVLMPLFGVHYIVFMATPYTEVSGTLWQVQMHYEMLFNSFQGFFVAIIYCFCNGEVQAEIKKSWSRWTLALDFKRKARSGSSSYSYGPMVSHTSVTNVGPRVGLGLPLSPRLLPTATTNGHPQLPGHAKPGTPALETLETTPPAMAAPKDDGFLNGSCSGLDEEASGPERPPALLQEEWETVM

Substance: parathyroid hormone PTH (1–34) (peptide)
- pEC50 of the PTH-induced FRET change of the PTH1R (FRET) conformational biosensor (plate reader, HEK293 cells), with RAMP2 (SNAP) coexpressed (1 µg cDNA): 8.59
- pEC50 of the PTH-induced FRET change of the PTH1R (FRET) conformational biosensor (plate reader, HEK293 cells), without RAMP2: 8.73

Reference: publication PMC9371678
